{
  "source": "paper PMC5774828",
  "target": "DS protein (Dengue-HBsAg fusion: EDIII of DENV-1, -3, -4 and -2 joined in tandem to the HBV S antigen) (dengue virus 1 (West Pac-74) | dengue virus 3 (H87/56) | dengue virus 4 (H241-P) | dengue virus 2 (PR159-S1/69) | hepatitis B virus (adw serotype))",
  "assay": "densitometry of a Western blot of the purified VLPs; Western blot of purified DSV4 developed with anti-S mAb 5S; ratio from the peak areas of DS, S and S dimer (ImageJ)",
  "data": [
    {"substance": "Hepatitis B virus surface (S) antigen, unfused (natural protein)", "values": [
      {"measurement": "stoichiometry N", "value": 4, "unit": "S per DS"}
    ]}
  ]
}
